Experimental findings from patent publication US20240076391A1 (ONCURIOUS, published 2024) are described below.

Experiment [1] deals with T1, human CCR8 (human, UniProt P51685 1-355).
T1 construct: also called hCCR8
The experiment can be described thus: flow cytometry competition with FLAG3-His6 tagged parental VHH-56 on hCCR8 cells. The text has this:
(§1) Multiple His6 tagged VHH variants were thus generated and evaluated by flow cytometry f for their ability to compete for binding to hCCR8 with their FLAG3-His6 tagged parental counterparts. […] Variants that retained binding capacity where selected for further biophysical and chemical stability analysis.
A general note: A flow cytometer gives signals particle by particle.

For experiment [2], the target named is T1, human CCR8. The experiment can be described thus: flow cytometry, human CCR8 stably expressed in HEK293 cells.
The target of experiment [3] is T2, N-terminal deletion human CCR8 (delta 18-3XHA) (human, UniProt P51685 20-355).
T2 construct: N-terminally deleted construct with 3XHA, expressed on transfected HEK293 cells
In words: flow cytometry; an extracellular loop binder is defined in paragraph 224 as binding on hCCR8 cells and on human CCR8 (delta18-3XHA). The source says: VHH clones resulting from the human CCR8 immunization and selection campaign were screened by means of flow cytometry for binding to human CCR8 (SEQ ID NO: 79) on stably transfected HEK293 cells or to HEK293 cells previously transfected with plasmid DNA encoding three different versions of human-mouse chimera CCR8 in which one of the extracellular loops (ECLs) was replaced with the mouse CCR8 counterpart, as well as to an N-terminal deletion human CCR8 (SEQ ID NO: 80, delta 18-3XHA herein after), in comparison to mock-transfected control cells. Comparison of the binding (median fluorescent intensity) signal of a given VHH clone across the seven cell lines enabled classification of said clone as an N-terminal human CCR8 binder (i.e. binding on hCCR8 cells, but not on human CCR8 (delta18-3XHA) or control cells) or as an extracellular loop hCCR8 binder (i.e. binding on hCCR8 cells and on human CCR8 (delta18-3XHA), but not on control cells). Binding comparison across the cell lines expressing human-mouse chimera CCR8 allowed to further classify extracellular hCCR8 binders as either ECL1, ECL2 or ECL3 binders.

In experiment [4] the target is T1, human CCR8. The experiment can be described thus: competition with VHH-65 for CCR8 binding.
Experiment [5] concerns the target T1, human CCR8. In words: flow cytometry competition with FLAG3-His6 tagged parental VHH-74 on hCCR8 cells.
Excerpt: as §1

Experiment [6] deals with T1, human CCR8. In words: flow cytometry competition with FLAG3-His6 tagged parental VHH-65 on hCCR8 cells.
Excerpt: as §1

Substitutions are numbered along the chain they refer to. Names and notes keep the numbering of the source.

T1 sequence (P51685 whole entry): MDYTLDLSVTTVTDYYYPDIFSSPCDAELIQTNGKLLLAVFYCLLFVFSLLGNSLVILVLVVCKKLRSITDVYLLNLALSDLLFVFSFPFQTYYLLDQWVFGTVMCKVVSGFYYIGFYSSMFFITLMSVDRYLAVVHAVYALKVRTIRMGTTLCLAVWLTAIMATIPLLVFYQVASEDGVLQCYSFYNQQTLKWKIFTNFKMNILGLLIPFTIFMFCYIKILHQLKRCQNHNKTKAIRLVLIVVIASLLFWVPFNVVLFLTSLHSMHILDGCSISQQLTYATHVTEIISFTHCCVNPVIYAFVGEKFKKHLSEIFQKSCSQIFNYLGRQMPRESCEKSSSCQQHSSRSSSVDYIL
T2 sequence (P51685 other isoform, or with tags, fused parts or gaps mutant): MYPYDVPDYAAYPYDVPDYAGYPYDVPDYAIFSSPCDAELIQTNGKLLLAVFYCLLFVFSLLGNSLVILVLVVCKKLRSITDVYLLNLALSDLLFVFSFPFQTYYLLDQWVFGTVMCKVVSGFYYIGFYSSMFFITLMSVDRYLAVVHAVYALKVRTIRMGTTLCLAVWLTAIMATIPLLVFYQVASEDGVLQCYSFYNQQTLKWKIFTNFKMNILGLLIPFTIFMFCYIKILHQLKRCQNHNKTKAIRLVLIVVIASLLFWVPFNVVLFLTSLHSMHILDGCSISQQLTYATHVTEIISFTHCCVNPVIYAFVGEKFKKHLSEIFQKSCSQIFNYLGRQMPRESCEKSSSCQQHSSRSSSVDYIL

B1: VHH-114 (VHH)
VHH: DVQLVESGGGLVQPGGSLRLSCAASRSIYNVLAMGWYRQAPGKERELVAVVWSSGNTNYADSVKGRFTISRDNAKNTVYLQMNSLRPEDTAVYYCYSKSLIGTSRYEIWGQGTLVTVSS
notes: 'V691' is printed, probably V69I; also called VHH-56 E1D, M32L, V691; not shown: C-terminal His6 tag (no FLAG3)
Consider B1, for which the binding result in experiment [1] is “binds”.

B2: VHH-56 (VHH)
VHH: B1 VHH with D1E, L32M, I69V
notes: Monovalent VHH purified from E. coli periplasm by IMAC; PelB signal peptide is removed on export; not shown: C-terminal FLAG3 and His6 tags
As for B2, the binding result in experiment [2] and in experiment [3] was “binds” in each case.

B3: VHH-115 (VHH)
VHH: B1 VHH with L32R
notes: 'V691' is printed, probably V69I; also called VHH-56 E1D, M32R, V691; not shown: C-terminal His6 tag (no FLAG3)
As for B3, the binding result in experiment [1] is recorded as “binds”.

B4: VHH-74 (VHH)
VHH: EVQLVESGGGLVQPGGSLRLSCAASGSTFSIKSIGWYRQAPGKQRELVADITRGAGINYADSVKGRFTISRDNTKNTMYLQMNSLRPEDTAVYYCNVKTIKRTGGIMTGSKIEYDYWGQGTLVTVSS
notes: Monovalent VHH purified from E. coli periplasm by IMAC; not shown: C-terminal FLAG3 and His6 tags
On to B4, for which the binding result in experiment [4] is listed as “binds”.

B5: VHH-125 (VHH)
VHH: B4 VHH with E1D, T74A, M78V, M107L
notes: also called VHH-74 E1D, T74A, M78V, M107L; not shown: C-terminal His6 tag (no FLAG3)
For B5, in experiment [5], the binding result is “binds”.

B6: VHH-65 (VHH)
VHH: EVQLVESGGGLVQPGGSLRLSCAASGRAFSSYNMGWFRQAPGKERDFVATISSSGTNYANSVKGRFTISRDNAKNTVYLQMNSLRPEDTAVYYCNAKTVTRTGGVITGSRIEYDYWGQGTLVTVSS
notes: as for B4
In the case of B6, the binding result in experiment [2] and in experiment [3] was “binds” throughout.

B7: VHH-89 (VHH)
VHH: B6 VHH with E1D, D46E, N60D
notes: also called VHH-65 E1D, D46E, N60D; not shown: C-terminal His6 tag (no FLAG3)
As to B7, the binding result in experiment [6] is reported as “binds”.
